Measurements: the supplement of paper PMC10567573
± gives the standard deviation.

Assay: protein stability index of a GFP-peptide fusion (GPS, HEK-293T) (PSI 1-6); higher = more stable
[1] = treatment: DMSO, c terminus: a fixed tail appended
[2] = treatment: MLN4924 1 uM, 8 h, c terminus: a fixed tail appended
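Also: 24-mer peptide tiles fused after GFP, lentivirally expressed, FACS-sorted into six equal bins by GFP/DsRed ratio, decoded by Illumina sequencing, PSI is the read-weighted mean bin number.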

Sequence | protein stability index [1] | protein stability index [2] | protein stability index (treatment: DMSO, c terminus: native) | protein stability index (treatment: MLN4924 1 uM, 8 h, c terminus: native)
KPAEYGYVSLGRLGAAKGALHPGC [CEBPB] | 2.94 ± 0.11 | 3.06 ± 0.32 | – | –
KPAFIGKTNLDGMITVQLPEVPAN [PTPRD] | 3.77 ± 0.16 | 3.81 ± 0.19 | – | –
KQQNVAHCMLVSNRVSWWGSTLAM [ZBED1] | 2.19 ± 0.37 | 2.03 ± 0.31 | – | –
KRCINLWKYALDMQQSNLDPLSPM [FEM1C] | 2.33 ± 0.48 | 2.07 ± 0.38 | – | –
KREEEALEERRLSRGEIPTLQRS [PKD2L1] | – | – | 5.33 ± 0.22 | 5.23 ± 0.28
KRNKRNPIFQDSQDTEVFSWSDNE [FAM104B] | 4.46 ± 0.21 | 4.58 ± 0.22 | – | –
KRQVPTEQAQAYAERLGVTFFEVS [RAB40B] | 2.99 ± 0.22 | 3.23 ± 0.23 | – | –
KSKVVGDRENGSDNLPSSAGSGDK [TPD52L2] | 5.39 ± 0.1 | 5.55 ± 0.16 | – | –
KSLEGDLEDLKDQIAQLEASLAAA [LMNB1] | 4.48 ± 0.23 | 4.23 ± 0.44 | – | –
KSQDLAKIMADIRAQYDELARKNR [KRT18] | 3.05 ± 0.41 | 3.29 ± 0.65 | – | –
KTIEELRDKILTATIENNRVILEI [KRT13] | 2.57 ± 0.46 | 2.71 ± 0.64 | – | –
KVQTVIILGKVILWILHLLLECYI [TMEM192] | 2.5 ± 0.62 | 2.35 ± 0.26 | – | –
KYDPHTGHWTNVTPMATKRSGAGV [KLHL12] | 3.69 ± 0.47 | 3.78 ± 0.17 | – | –
KYLKPSGNMFPTIGDVHLAPFTDE [CARM1] | 3.69 ± 0.1 | 3.61 ± 0.37 | – | –
KYLKVPQDPLKFYKKIYFCHSCQL [IQUB] | 2.24 ± 0.47 | 1.97 ± 0.2 | – | –
LACRLTPDMETKLLFMTSRVRFGQ [INTS3] | 2.2 ± 0.16 | 2.23 ± 0.22 | – | –
LALGRERLGEIHTLPLPASLKAYL [SPSB1] | 2.24 ± 0.38 | 2.15 ± 0.19 | – | –
LAPAGQTSEESRPRLSQLSVTDVT [TNXB] | 4.64 ± 0.68 | 5.13 ± 0.31 | – | –
LASLPLKADTKGFCNISLFEDLPL [PLAGL1] | 2.33 ± 0.19 | 2.43 ± 0.1 | – | –
LASSLSPSQDERMRSPQNLHSQED [NOL4L] | 5.37 ± 0.38 | 5.54 ± 0.12 | – | –
LATTEKKTEQQRRREKAVHRLRVQ [NOP53] | 4.34 ± 0.19 | 4.37 ± 0.17 | – | –
LCEKEPLGNVLFSPICLSTSLSLA [SERPINB5] | 2.13 ± 0.34 | 2.18 ± 0.34 | – | –

Sequence | protein stability index [1] | protein stability index [2] | protein stability index (treatment: DMSO, c terminus: native) | protein stability index (treatment: MLN4924 1 uM, 8 h, c terminus: native)
LDDLSQKLKPLGEAEREFILNLKK [NLN] | 3.36 ± 0.44 | 3.07 ± 0.22 | – | –
LDGQLDFEEFVHYLQDHEKKLRLV [SLC25A25] | 3.3 ± 0.68 | 2.98 ± 0.33 | – | –
LDLSEEDSDDPSVTLELSQLSMLP [VDR] | 4.62 ± 0.3 | 4.73 ± 0.26 | – | –
LDNCVEVGRIANTYNLTEVDKYVN [KLHL13] | 4.12 ± 0.17 | 3.94 ± 0.23 | – | –
LDQPAFQQLVSFSESGSLGNSSGS [ISL2] | 4.43 ± 0.13 | 4.56 ± 0.075 | – | –
LEDLERELDEPQHEMVAHRHRQEV [ZSCAN9] | 5.56 ± 0.12 | 5.47 ± 0.072 | – | –
LEECLRLLEATCPFGENAEFPADI [NFE2L1] | 3.61 ± 0.68 | 3.61 ± 0.23 | – | –
LEEVAVQQTGDDDEVDDFEDFIFS [PBXIP1] | 5.43 ± 0.36 | 5.41 ± 0.27 | – | –
LEGFQAQGHPPSLFPPKAKSNQPK [ATE1] | 5.16 ± 0.19 | 5.19 ± 0.18 | – | –
LEHGADPTVKDLIGGFTALHYAAM [ASB7] | 2.5 ± 0.45 | 2.54 ± 0.38 | – | –
LEKCKTLVSQSNDLSSLRAKYPHD [SPACA9] | 4.29 ± 0.16 | 4.4 ± 0.19 | – | –
LELVINYQQLCIYWTKYYDFKNPI [OAS1] | 3.22 ± 0.24 | 3.33 ± 0.18 | – | –
LEPMKSRAPQLHLEYRFYEQLGSG [CSNK1G3] | 2.91 ± 0.2 | 2.63 ± 0.47 | – | –
LEPSTPYRFLLYGLHEGKRLGPLS [TNXB] | 2.44 ± 0.3 | 2.46 ± 0.15 | – | –
LERLAYLHARLRELLCELGRPSMV [PRAME] | 2.42 ± 0.16 | 2.3 ± 0.33 | – | –
LFIILQVGLNTIADLWYLFGDLSL [POMT2] | 3.06 ± 0.84 | 3.17 ± 0.064 | – | –
LFLFGYKFSGLYILSFTVIMVGFI [SLC35F2] | 3.64 ± 0.12 | 3.18 ± 0.41 | – | –
LFLGRILSLTSSASRLLTTALTSF [FANCE] | 2.44 ± 0.1 | 2.27 ± 0.19 | – | –
LGDLLMPTMAPAGQPAPVSMVPPS [SNAP91] | 3.26 ± 0.2 | 3.51 ± 0.18 | – | –
LGEDNQPETQLFWDKEPWFWHDTL [TLE6] | 3.37 ± 0.35 | 3.32 ± 0.27 | – | –
LGGVKKSATLRSFEGLMGTIKSKV [TPD52L3] | 2.64 ± 0.3 | 2.54 ± 0.26 | – | –
LGSTKLSDKDKAVGIFNTVINPML [OR3A1] | 3 ± 0.46 | 3.19 ± 0.28 | – | –

Sequence | protein stability index [1] | protein stability index [2] | protein stability index (treatment: DMSO, c terminus: native) | protein stability index (treatment: MLN4924 1 uM, 8 h, c terminus: native)
LGSYKAQKTSRSSSIPCSGSLDGR [PPEF2] | 4.177 ± 0.013 | 4.43 ± 0.14 | – | –
LGVALFTMLAGHYPFQDSEPVLLF [TRIB3] | 2.94 ± 0.59 | 2.93 ± 0.27 | – | –
LHLKRQPKRRWLFWNSPSSPSSSA [RHOBTB2] | 2.27 ± 0.25 | 2.53 ± 0.21 | – | –
LHYKWIPVEDSHTADISSHFQEAI [DUSP5] | 2.17 ± 0.23 | 2.25 ± 0.52 | – | –
LHYQDTDSDVPEQRDSKCKVKWTH [MYBL2] | 3.77 ± 0.32 | 4.05 ± 0.19 | – | –
LIKNFHQYSVEGGKETLTPSELRD [S100A14] | 4.15 ± 0.2 | 4.3 ± 0.26 | – | –
LILELVSGGELFDFLAEKESLTED [DAPK3] | 1.94 ± 0.18 | 2.49 ± 0.43 | – | –
LIQQFLTLRPDQQLHIFNTLRSHL [CDS2] | 2.37 ± 0.16 | 2.34 ± 0.27 | – | –
LIYASYFALIAVVFLASGAVSVMK [SLC19A2] | 2.95 ± 0.27 | 3.44 ± 0.43 | – | –
LKHQTVYRLLKCAPRGKNGFTPLH [FEM1A] | 2.71 ± 0.69 | 2.39 ± 0.57 | – | –
LKKGSKEKQADFLDKQMSRDEHRA [NFE2L1] | 5 ± 0.39 | 5.08 ± 0.32 | – | –
LKLVSFSKLCTSYSHSSTRDGRRD [GOSR1] | 2.81 ± 0.3 | 2.79 ± 0.35 | – | –
LKTFVKQTDHIKGIRQITSDDFCT [GFOD1] | 3.29 ± 0.4 | 3.26 ± 0.23 | – | –
LLALAGAVQRLEGALWGLQAQAVQ [SCARA5] | 3.33 ± 0.29 | 3.48 ± 0.14 | – | –
LLASLTGGVLIDRYGRRTAIILSS [SLC2A12] | 2.86 ± 0.5 | 3.06 ± 0.87 | – | –
LLAVPNIILTNQSVREVTQIKCIE [P2RY14] | 2.53 ± 0.29 | 2.35 ± 0.21 | – | –
LLCGAAFGRLVANVLKSYIGLGHI [CLCN6] | 2.66 ± 0.42 | 3.14 ± 0.46 | – | –
LLHMPQPVNPELTAGPITGLVYRL [TRIM43] | 2.26 ± 0.3 | 2.67 ± 0.36 | – | –
LLLGTAYSFYLFHPLAYGMVGPLA [POMT2] | 3.32 ± 0.18 | 3.18 ± 0.59 | – | –
LLVVGGFGSQQSPIDVVEKYDPKT [KLHL12] | 3 ± 0.55 | 3.61 ± 0.33 | – | –
LPCQHNLCRKCANDIFQAANPYWT [TRIM63] | 2.38 ± 0.18 | 2.29 ± 0.14 | – | –
